Measured values published in patent publication US8357523B2, “Beta-glucosidase variant enzymes and related polynucleotides” (Codexis, Inc., priority 2009, dated 2013).
Positions count from the first letter of the chain named.

B1: 428 (protein)
chain: SAAITQEGAAPAAMLHPEKWPRPATQRLIDPAVEKRVDALLKQLSVEEKVGQVIQGDIGTITPEDLRKYPLGSILAGGDSGPNGDDRAPPKEWLDLADAFYRVSLEKRPGHTPIPVLFGIDAVHGHNNIGSATIFPHNIALGMTRDPELLRRIGEVTAEEMAATGIDWTFAPALSVPRDDRWGRTYEGFSEDPEIVASYSAAIVEGFQGKYGSKDFMAPGRAVACAKHFLADGGTDQGRDQGDARISEDELIRIHNAGYPPAIDAGVLTVMASFSSWQGIKHHGHKQLLTDVLKGQMGFNGFIVGDWNAHDQVPGCTKFNCPTSLIAGLDMYMAADSWKQLYENTLAQVKDGTIPMARLDDAVRRILRVKVLAGLFEKPAPKDRPGLPGLETLGSPEHRTVGREAVRKSLVLLKNDKGTLPLSPKARVLVAGDGADNIGKQSGGWTISWQGTGNRNDEFPGATSILGGIRDAVADAGGSVEFDVAGQYKTKPDVAIVVFGEEPYAEFQGDVETLEYQPDQKQDLTLLKKLKDQGIPVVAVFLSGRPMWVNPELNASDAFVAAWLPGTEGGGVADVLFTDKAGKVQHDFAGKLSYSWPRTAAQTTVNRGDADYNPLFAYGYGLTYKDKSKVGTLPEESGVPAEARQNAGIYFRAGALRLPGRFL
modifications: truncated; signal peptide F-10T
B2: 429 (protein)
chain: B1 chain with A13P, P147T, P177V, I203Y, T400A, Q508R, H586Y
modifications: truncated; signal peptide F-10T
B3: 393 (protein)
chain: B1 chain with A3R, I4S, T400A, Q508R
modifications: truncated; signal peptide F-10T
B4: 404 (protein)
chain: B1 chain with A13P, P109D, N128K, T400A, Q508R, P597A
modifications: truncated; signal peptide F-10T
B5: 432 (protein)
chain: B1 chain with A3R, P147T, I203Y, T400A, E502N, Q508R, H586Y
modifications: truncated; signal peptide F-10T, I-14V
B6: 431 (protein)
chain: B1 chain with A13P, P109D, T400A, Q508R, T525S
modifications: truncated; signal peptide F-10T
B7: 433 (protein)
chain: B1 chain with A3R, T400A, Q508R
modifications: truncated; signal peptide F-10T
B8: 397 (protein)
chain: B1 chain with A3R, M161V, P177V, I203Y, A222I, D383G, T400A, Q508R
modifications: truncated; signal peptide F-10T
B9: 402 (protein)
chain: B1 chain with A3R, A13P, P147T, I203Y, T400A, Q508R, T525S, H586Y
modifications: truncated; signal peptide F-10T, K-21R
B10: 401 (protein)
chain: B1 chain with T25A, N128H, I203Y, T400A, Q508R, T525S
modifications: truncated; signal peptide F-10T
B11: 399 (protein)
chain: B1 chain with A3R, P109D, M356T, T400A, Q508R
modifications: truncated; signal peptide F-10T
B12: 403 (protein)
chain: B1 chain with A13P, P109D, T400A, Q508R
modifications: truncated; signal peptide F-10T
B13: 406 (protein)
chain: B1 chain with A3R, A13P, P147T, E159G, T400A, Q508R
modifications: truncated; signal peptide F-10T
B14: 400 (protein)
chain: B1 chain with P177V, I203Y, M356T, T400A, Q508R, N646K
modifications: truncated; signal peptide F-10T
B15: 407 (protein)
chain: B1 chain with P109D, P147T, T400A, E502N, Q508R, H586Y
modifications: truncated; signal peptide F-10T
B16: 396 (protein)
chain: B1 chain with I4S, T400A, Q508R, A601V
modifications: truncated; signal peptide F-10T
B17: 434 (protein)
chain: B1 chain with A13P, P177V, I203Y, E502N, Q508R
modifications: truncated; signal peptide F-10T
B18: 395 (protein)
chain: B1 chain with A3R, I61V, T400A, Q508R
modifications: truncated; signal peptide F-10T
B19: 405 (protein)
chain: B1 chain with A13P, Q508R, H586Y
modifications: truncated; signal peptide F-10T
B20: 398 (protein)
chain: B1 chain with A3R, S213T, T400A, Q508R
modifications: truncated; signal peptide F-10T
B21: 430 (protein)
chain: B1 chain with P109D, T400A, Q508R
modifications: truncated; signal peptide F-10T
B22: 215 (protein)
chain: STAIAQEGAPPAAILHPEKWPRPATQRLIDPAVEKRVDALLKQLSVEEKVGQVIQGDIGTITPEDLRKYPLGSILAGGDSGPNGDDRAPPKEWLDLADAFYRVSLEKRPGHTPIPVLFGIDAVHGHGNIGSATIFPHNIALGMTRDPELLRRIGEVTAEEMAATGIDWTFAPALSVVRDDRWGRTYEGFSEDPEIVASYSAAIVEGVQGKYGSKDFMAPGRIVASAKHFLADGGTDQGRDQGDARISEDELIRIHNAGYPPAIDAGVLTVMASFSSWQGIKHHGHKQLLTDVLKGQMGFNGFIVGDWNAHDQVPGCTKFNCPTSLIAGLDMYMAADSWKQLYENTLAQVKDGTIPMARLDDAVRRILRVKVLAGLFEKPAPKDRPGLPGLETLGSPEHRAVGREAVRKSLVLLKNDKGTLPLSPKARVLVAGDGADNIGKQSGGWTISWQGTGNRNDEFPGATSILGGIRDAVADAGGSVEFDVAGQYKTKPDVAIVVFGEEPYAEFQGDVETLEYQPDQKQDLALLKKLKDQGIPVVAVFLSGRPMWVNPELNASDAFVAAWLPGTEGGGVADVLFTDKAGKVQHDFAGKLSYSWPRTAAQTTVNRGDADYNPLFAYGYGLTYKDKSKVGTLPEESGVP
B23: 217 (protein)
chain: B22 chain with P10S
B24: 216 (protein)
chain: B22 chain with P10A, I14T
B25: 222 (protein)
chain: B22 chain with A5T, P10A
B26: 287 (protein)
chain: STAIAQEGAAPAAILHPEKWPRPATQRLIDPAVEKRVDALLKQLSVEEKVGQVIQGDIGTITPEDLRKYPLGSILAGGDSGPNGDDRAPPKEWLDLADAFYRVSLEKRPGHTPIPVLFGIDAVHGHGNIGSATIFPHNIALGMTRDPELLRRIGEVTAEEMAATGIDWTFAPALSVVRDDRWGRTYEGFSEDPEIVASYSAAIVEGVQGKYGSKDFMAPGRIVASAKHFLADGGTDQGRDQGDARISEDELIRIHNAGYPPAIDAGVLTVMASFSSWQGIKHHGHKQLLTDVLKGQMGFNGFIVGDWNAHGQVPGCTKFNCPTSLIAGLDMYMAADSWKQLYENTLAQVKDGTIPMARLDDAVRRILRVKVLAGLFEKPAPKDRPGLPGLETLGSPEHRAVGREAVRKSLVLLKNDKGTLPLSPKARVLVAGDGADNIGKQSGGWTISWQGTGNRNDEFPGATSILGGIRDAVADAGGSVEFDVAGQYKTKPDVAIVVFGEEPYAEFQGDVETLEYQPDQKQDLALLKKLKDQGIPVVAVFLSGRPMWVNPELNASDAFVAAWLPGTEGGGVADVLFTDKAGKVQHDFAGKLSYSWPRTAAQTTVNRGDADYNPLFAYGYGLTYKDKSKVGTLPEESGVPAEARQNAGIYFRAGALRLPGRFL

Assay: High throughput cellobiose assay: fold improvement in cellobiase activity of CelA variants over a control enzyme (Tables 2A-2D, 3, 5, 6, 7)
Assay type: biochemical
Details: 3.3 g/l cellobiose; for Fold Improvement over Control Variant: 65° C. and pH 5 (incubation overnight), relative to Control #5, Variant No. 366 (SEQ ID NO: 9); for Fold improvement over Control Variant No. 94 from Table 2B: 55° C. and pH 5.3 (incubation overnight)

Molecule | Fold Improvement over Control Variant | Fold improvement over Control Variant No. 94 from Table 2B
B1 | ++ (++ = 1.1 to 2.0 fold improvement over control Variant No. 366) | 
B2 | ++ (++ = 1.1 to 2.0 fold improvement over control Variant No. 366) | 
B3 | ++ (++ = 1.1 to 2.0 fold improvement over control Variant No. 366) | 
B4 | ++ (++ = 1.1 to 2.0 fold improvement over control Variant No. 366) | 
B5 | ++ (++ = 1.1 to 2.0 fold improvement over control Variant No. 366) | 
B6 | ++ (++ = 1.1 to 2.0 fold improvement over control Variant No. 366) | 
B7 | ++ (++ = 1.1 to 2.0 fold improvement over control Variant No. 366) | 
B8 | ++ (++ = 1.1 to 2.0 fold improvement over control Variant No. 366) | 
B9 | ++ (++ = 1.1 to 2.0 fold improvement over control Variant No. 366) | 
B10 | ++ (++ = 1.1 to 2.0 fold improvement over control Variant No. 366) | 
B11 | ++ (++ = 1.1 to 2.0 fold improvement over control Variant No. 366) | 
B12 | ++ (++ = 1.1 to 2.0 fold improvement over control Variant No. 366) | 
B13 | ++ (++ = 1.1 to 2.0 fold improvement over control Variant No. 366) | 
B14 | ++ (++ = 1.1 to 2.0 fold improvement over control Variant No. 366) | 
B15 | +++ (+++ = 2.1 to 3.0 fold improvement over control Variant No. 366) | 
B16 | ++ (++ = 1.1 to 2.0 fold improvement over control Variant No. 366) | 
B17 | ++ (++ = 1.1 to 2.0 fold improvement over control Variant No. 366) | 
B18 | ++ (++ = 1.1 to 2.0 fold improvement over control Variant No. 366) | 
B19 | ++ (++ = 1.1 to 2.0 fold improvement over control Variant No. 366) | 
B20 | ++ (++ = 1.1 to 2.0 fold improvement over control Variant No. 366) | 
B21 | ++ (++ = 1.1 to 2.0 fold improvement over control Variant No. 366) | 
B22 |  | ++++ (++++ = 1.1 to 1.5 fold improvement over Control No. 3, Variant No. 94)
B23 |  | ++++ (++++ = 1.1 to 1.5 fold improvement over Control No. 3, Variant No. 94)
B24 |  | ++++ (++++ = 1.1 to 1.5 fold improvement over Control No. 3, Variant No. 94)
B25 |  | ++++ (++++ = 1.1 to 1.5 fold improvement over Control No. 3, Variant No. 94)
B26 |  | ++++ (++++ = 1.1 to 1.5 fold improvement over Control No. 3, Variant No. 94)
